Reference: patent US20110171126A1

How the values were obtained:
[1] = target: HLA-DR as expressed by cancer cell lines (human); assay: flow cytometry, permeabilized (cytoplasmic), Moser cells + IFNγ
[2] = target: HLA-DR as expressed by cancer cell lines (human); assay: flow cytometry, surface, Aspc-1 cells
[3] = target: HLA-DR as expressed by cancer cell lines (human); assay: flow cytometry, surface, Moser cells
[4] = target: HLA-DR as expressed by cancer cell lines (human); assay: flow cytometry, permeabilized (cytoplasmic), Panc-1 cells
[5] = target: HLA-DR as expressed by cancer cell lines (human); assay: flow cytometry, permeabilized (cytoplasmic), Moser cells
[6] = target: HLA-DR as expressed by cancer cell lines (human); assay: flow cytometry, permeabilized (cytoplasmic), U118 cells + IFNγ
[7] = target: HLA-DR as expressed by cancer cell lines (human); assay: cell-based or functional assay
[8] = target: HLA-DR as expressed by cancer cell lines (human); assay: flow cytometry, permeabilized (cytoplasmic), U87 cells + IFNγ
[9] = target: HLA-DR as expressed by cancer cell lines (human); assay: flow cytometry, surface, CAG cells
[10] = target: HLA-DR as expressed by cancer cell lines (human); assay: flow cytometry, permeabilized (cytoplasmic), BxPC-3 cells
[11] = target: HLA-DR as expressed by cancer cell lines (human); assay: flow cytometry, surface, LS174T cells
[12] = target: HLA-DR as expressed by cancer cell lines (human); assay: flow cytometry, permeabilized (cytoplasmic), RL cells + IFNγ
[13] = target: HLA-DR as expressed by cancer cell lines (human); assay: flow cytometry, permeabilized (cytoplasmic), Lovo cells + IFNγ
[14] = target: HLA-DR as expressed by cancer cell lines (human); assay: flow cytometry, surface, RL cells + IFNγ
[15] = target: HLA-DR as expressed by cancer cell lines (human); assay: flow cytometry, permeabilized (cytoplasmic), LS174T cells
[16] = target: HLA-DR as expressed by cancer cell lines (human); assay: flow cytometry, permeabilized (cytoplasmic), Aspc-1 cells
[17] = target: HLA-DR as expressed by cancer cell lines (human); assay: flow cytometry, surface, RL cells
[18] = target: HLA-DR as expressed by cancer cell lines (human); assay: flow cytometry, surface, U87 cells
[19] = target: HLA-DR as expressed by cancer cell lines (human); assay: flow cytometry, surface, Moser cells + IFNγ
[20] = target: HLA-DR as expressed by cancer cell lines (human); assay: flow cytometry, permeabilized (cytoplasmic), HT29 cells
[21] = target: HLA-DR as expressed by cancer cell lines (human); assay: flow cytometry, permeabilized (cytoplasmic), TU118 cells
[22] = target: HLA-DR as expressed by cancer cell lines (human); assay: flow cytometry, permeabilized (cytoplasmic), FSCCL cells
[23] = target: HLA-DR as expressed by cancer cell lines (human); assay: flow cytometry, surface, Aspc-1 cells + IFNγ
[24] = target: HLA-DR as expressed by cancer cell lines (human); assay: flow cytometry, surface, Panc-1 cells
[25] = target: HLA-DR as expressed by cancer cell lines (human); assay: flow cytometry, surface, Capan-1 cells
[26] = target: HLA-DR as expressed by cancer cell lines (human); assay: flow cytometry, permeabilized (cytoplasmic), CAG cells + IFNγ
[27] = target: HLA-DR as expressed by cancer cell lines (human); assay: flow cytometry, surface, U118 cells + IFNγ
[28] = target: HLA-DR as expressed by cancer cell lines (human); assay: flow cytometry, permeabilized (cytoplasmic), Lovo cells
[29] = target: HLA-DR as expressed by cancer cell lines (human); assay: flow cytometry, surface, TU118 cells
[30] = target: HLA-DR as expressed by cancer cell lines (human); assay: flow cytometry, permeabilized (cytoplasmic), Panc-1 cells + IFNγ
[31] = target: HLA-DR as expressed by cancer cell lines (human); assay: flow cytometry, surface, BxPC-3 cells
[32] = target: HLA-DR as expressed by cancer cell lines (human); assay: flow cytometry, surface, BxPC-3 cells + IFNγ
[33] = target: HLA-DR as expressed by cancer cell lines (human); assay: flow cytometry, surface, Lovo cells + IFNγ
[34] = target: HLA-DR as expressed by cancer cell lines (human); assay: flow cytometry, surface, U118 cells
[35] = target: HLA-DR as expressed by cancer cell lines (human); assay: flow cytometry, permeabilized (cytoplasmic), U87 cells
[36] = target: HLA-DR as expressed by cancer cell lines (human); assay: flow cytometry, surface, LS174T cells + IFNγ
[37] = target: HLA-DR as expressed by cancer cell lines (human); assay: flow cytometry, surface, Capan cells + IFNγ
[38] = target: HLA-DR as expressed by cancer cell lines (human); assay: flow cytometry, surface, HT29 cells + IFNγ
[39] = target: HLA-DR as expressed by cancer cell lines (human); assay: flow cytometry, surface, FSCCL cells
[40] = target: HLA-DR as expressed by cancer cell lines (human); assay: flow cytometry, permeabilized (cytoplasmic), Aspc-1 cells + IFNγ
[41] = target: HLA-DR as expressed by cancer cell lines (human); assay: flow cytometry, permeabilized (cytoplasmic), HT29 cells + IFNγ
[42] = target: HLA-DR as expressed by cancer cell lines (human); assay: flow cytometry, surface, KMS11 cells + IFNγ
[43] = target: HLA-DR as expressed by cancer cell lines (human); assay: flow cytometry, permeabilized (cytoplasmic), FSCCL cells + IFNγ
[44] = target: HLA-DR as expressed by cancer cell lines (human); assay: flow cytometry, permeabilized (cytoplasmic), LS174T cells + IFNγ
[45] = target: HLA-DR as expressed by cancer cell lines (human); assay: flow cytometry, surface, TU118 cells + IFNγ
[46] = target: HLA-DR as expressed by cancer cell lines (human); assay: flow cytometry, permeabilized (cytoplasmic), BxPC-3 cells + IFNγ
[47] = target: HLA-DR as expressed by cancer cell lines (human); assay: flow cytometry, surface, FSCCL cells + IFNγ
[48] = target: HLA-DR as expressed by cancer cell lines (human); assay: flow cytometry, surface, Panc-1 cells + IFNγ
[49] = target: HLA-DR as expressed by cancer cell lines (human); assay: flow cytometry, surface, U87 cells + IFNγ
[50] = target: HLA-DR as expressed by cancer cell lines (human); assay: flow cytometry, permeabilized (cytoplasmic), KMS11 cells + IFNγ
[51] = target: HLA-DR as expressed by cancer cell lines (human); assay: flow cytometry, permeabilized (cytoplasmic), KMS11 cells
[52] = target: HLA-DR as expressed by cancer cell lines (human); assay: flow cytometry, permeabilized (cytoplasmic), Capan-1 cells
[53] = target: HLA-DR as expressed by cancer cell lines (human); assay: flow cytometry, surface, HT29 cells
[54] = target: HLA-DR as expressed by cancer cell lines (human); assay: flow cytometry, permeabilized (cytoplasmic), TU118 cells + IFNγ
[55] = target: HLA-DR as expressed by cancer cell lines (human); assay: flow cytometry, permeabilized (cytoplasmic), U118 cells
[56] = target: HLA-DR as expressed by cancer cell lines (human); assay: flow cytometry, permeabilized (cytoplasmic), CAG cells
[57] = target: HLA-DR as expressed by cancer cell lines (human); assay: flow cytometry, surface, KMS11 cells
[58] = target: HLA-DR as expressed by cancer cell lines (human); assay: flow cytometry, permeabilized (cytoplasmic), RL cells
[59] = target: HLA-DR as expressed by cancer cell lines (human); assay: flow cytometry, surface, Lovo cells
[60] = target: HLA-DR as expressed by cancer cell lines (human); assay: flow cytometry, permeabilized (cytoplasmic), Capan cells + IFNγ
[61] = target: HLA-DR as expressed by cancer cell lines (human); assay: flow cytometry, surface, CAG cells + IFNγ

B1: hL243γ4P (humanized anti-HLA-DR antibody) (antibody, from a related filing, V domains shown)
VH: QVQLQQSGSELKKPGASVKVSCKASGFTFTNYGMNWVKQAPGQGLKWMGWINTYTREPTYADDFKGRFAFSLDTSVSTAYLQISSLKADDTAVYFCARDITAVVPTGFDYWGQGSLVTVSS
VL: DIQLTQSPSSLSASVGDRVTITCRASENIYSNLAWYRQKPGKAPKLLVFAASNLADGVPSRFSGSGSGTDYTFTISSLQPEDIATYYCQHFWTTPWAFGGGTKLQIKR
Work on B1 yielded a fluorescence intensity (flow cytometry) [1] of 40.5, a fluorescence intensity (flow cytometry) [2] of 3.2 and a fluorescence intensity (flow cytometry) [3] of 4. For the same binder, the fluorescence intensity (flow cytometry) [4] was 22.7, the fluorescence intensity (flow cytometry) [5] was 18.2 and the fluorescence intensity (flow cytometry) [6] was 352. For the same binder, the increased killing in vitro after IFN-γ exposure, WSU-FSCCL NHL cells [7] was 58%, the fluorescence intensity (flow cytometry) [8] was 429 and the fluorescence intensity (flow cytometry) [9] was 1930. The fluorescence intensity (flow cytometry) [10] was 14.2, the fluorescence intensity (flow cytometry) [11] was 5.3 and the fluorescence intensity (flow cytometry) [12] was 1180. For the same binder, the fluorescence intensity (flow cytometry) [13] was 989, the fluorescence intensity (flow cytometry) [14] was 862 and the fluorescence intensity (flow cytometry) [15] was 23.4. The fluorescence intensity (flow cytometry) [16] was 11, the fluorescence intensity (flow cytometry) [17] was 750 and the fluorescence intensity (flow cytometry) [18] was 41.9. It also gave a fluorescence intensity (flow cytometry) [19] of 8.5, a fluorescence intensity (flow cytometry) [20] of 9.1 and a fluorescence intensity (flow cytometry) [21] of 23.6. The fluorescence intensity (flow cytometry) [22] was 1470, the fluorescence intensity (flow cytometry) [23] was 15.2 and the fluorescence intensity (flow cytometry) [24] was 4.3. It also gave a fluorescence intensity (flow cytometry) [25] of 5.5, a fluorescence intensity (flow cytometry) [26] of 2420 and a fluorescence intensity (flow cytometry) [27] of 197. For the same binder, the fluorescence intensity (flow cytometry) [28] was 32.5, the fluorescence intensity (flow cytometry) [29] was 5.08 and the fluorescence intensity (flow cytometry) [30] was 64.1. It also gave a fluorescence intensity (flow cytometry) [31] of 2.3, a fluorescence intensity (flow cytometry) [32] of 43.8 and a fluorescence intensity (flow cytometry) [33] of 276. The fluorescence intensity (flow cytometry) [34] was 6.1, the fluorescence intensity (flow cytometry) [35] was 102 and the fluorescence intensity (flow cytometry) [36] was 4.7. It also gave a fluorescence intensity (flow cytometry) [37] of 66.2, a fluorescence intensity (flow cytometry) [38] of 298 and a fluorescence intensity (flow cytometry) [39] of 1090. For the same binder, the fluorescence intensity (flow cytometry) [40] was 73.6, the fluorescence intensity (flow cytometry) [41] was 638 and the fluorescence intensity (flow cytometry) [42] was 665. It also gave a fluorescence intensity (flow cytometry) [43] of 2520, a fluorescence intensity (flow cytometry) [44] of 42.3 and a fluorescence intensity (flow cytometry) [45] of 93.5. For the same binder, the fluorescence intensity (flow cytometry) [46] was 130, the fluorescence intensity (flow cytometry) [47] was 1610 and the fluorescence intensity (flow cytometry) [48] was 4.7. For the same binder, the fluorescence intensity (flow cytometry) [49] was 172, the fluorescence intensity (flow cytometry) [50] was 927 and the fluorescence intensity (flow cytometry) [51] was 879. It also gave a fluorescence intensity (flow cytometry) [52] of 11.6, a fluorescence intensity (flow cytometry) [53] of 3.3 and a fluorescence intensity (flow cytometry) [54] of 215. It also gave a fluorescence intensity (flow cytometry) [55] of 24.6, a fluorescence intensity (flow cytometry) [56] of 2320 and a fluorescence intensity (flow cytometry) [57] of 677. The fluorescence intensity (flow cytometry) [58] was 1060, the fluorescence intensity (flow cytometry) [59] was 7.3 and the fluorescence intensity (flow cytometry) [60] was 253. For the same binder, the fluorescence intensity (flow cytometry) [61] was 1810.
